Key:
CD64 (human) [1] = biological target: CD64 (human) (UniProt P12314)
CD64 (human) [2] = biological target: CD64 (human) (UniProt P12314); assay: cell-based or functional assay
CD64 = CD64 (human, UniProt P12314 16-374); assay: cell-based or functional assay

Molecule: moAb m22 (antibody)
- % inhibition of m22(scFv)-ETA' binding (CD64 (human) [1]): 70%

Molecule: m22(scFv)2-ETA'
- IC50 of growth inhibition (XTT-based colorimetric assay) on HL-60 cells (CD64 (human) [2]): 0.0117 µg/mL
- IC50 of growth inhibition (XTT-based colorimetric assay) on U937 cells (CD64 (human) [2]): 0.0135 µg/mL

B1: m22(scFv)-ETA' (scFv)
chain 1: QVQLVESGGGVVQPGRSLRLSCSSSGFIFSDNYMYWVRQAPGKGLEWVATISDGGSYTYYPDSVKGRFTISRDNSKNTLFLQMDSLRPEDTGVYFCARGYYRYEGAMDYWGQGTPVTVSS
chain 2: DIQLTQSPSSLSASVGDRVTITCKSSQSVLYSSNQKNYLAWYQQKPGKAPKLLIYWASTRESGVPSRFSGSGSGTDFTFTISSLQPEDIATYYCHQYLSSWTFGQGTKLEIK
- IC50 of growth inhibition (XTT-based colorimetric assay) on HL-60 cells (CD64): 0.0116 µg/mL
- IC50 of growth inhibition (XTT-based colorimetric assay) on U937 cells (CD64): 0.0129 µg/mL

Source: patent EP1694709B1 (Fraunhofer-Gesellschaft zur Förderung der angewandten …, dated 2010)
